Literature values as cited in article PMC3423339.

Target: Alk1 (Homo sapiens) (UniProt P37023)
UniProt P37023, sequence (P37023 22-118): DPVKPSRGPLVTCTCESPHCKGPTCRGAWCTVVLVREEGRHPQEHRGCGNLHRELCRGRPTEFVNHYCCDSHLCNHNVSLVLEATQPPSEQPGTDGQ

Kd: 1 pM
Substance: BMP9 (from UniProt Q9UK05)
